The numbers were not newly measured in article PMC3563353, which cites them from elsewhere.

Chain of MC5R (P33032 whole entry): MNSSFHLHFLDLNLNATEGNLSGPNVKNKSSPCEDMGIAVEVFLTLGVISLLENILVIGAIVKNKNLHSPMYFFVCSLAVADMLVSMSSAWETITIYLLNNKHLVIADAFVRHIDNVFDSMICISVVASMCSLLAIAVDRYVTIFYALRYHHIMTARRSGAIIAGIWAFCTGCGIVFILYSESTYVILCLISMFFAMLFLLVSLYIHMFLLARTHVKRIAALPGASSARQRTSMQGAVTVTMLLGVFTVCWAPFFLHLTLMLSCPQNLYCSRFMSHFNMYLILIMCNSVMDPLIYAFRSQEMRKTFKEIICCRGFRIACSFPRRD
Chain of MC1R (Q01726 whole entry): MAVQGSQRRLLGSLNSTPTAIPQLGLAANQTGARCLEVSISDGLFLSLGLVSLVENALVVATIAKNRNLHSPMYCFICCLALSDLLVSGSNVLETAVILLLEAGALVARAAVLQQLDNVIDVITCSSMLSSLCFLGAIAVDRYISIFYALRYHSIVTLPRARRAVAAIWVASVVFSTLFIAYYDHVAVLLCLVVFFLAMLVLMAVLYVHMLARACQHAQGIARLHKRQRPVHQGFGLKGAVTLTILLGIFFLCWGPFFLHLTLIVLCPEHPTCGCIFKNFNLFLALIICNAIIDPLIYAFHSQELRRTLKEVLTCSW
Chain of MC4R (P32245 whole entry): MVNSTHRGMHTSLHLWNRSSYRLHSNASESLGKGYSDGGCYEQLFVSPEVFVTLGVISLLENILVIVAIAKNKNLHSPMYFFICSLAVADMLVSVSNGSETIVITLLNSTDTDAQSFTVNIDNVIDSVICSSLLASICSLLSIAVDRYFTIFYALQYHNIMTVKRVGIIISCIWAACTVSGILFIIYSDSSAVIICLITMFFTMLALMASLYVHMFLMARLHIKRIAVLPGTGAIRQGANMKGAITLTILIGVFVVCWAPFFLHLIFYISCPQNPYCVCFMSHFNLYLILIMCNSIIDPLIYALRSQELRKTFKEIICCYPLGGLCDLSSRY

The series has as its target 4-phenylbutyryl-His-DPhe-Arg-Trp-Gly-Lys. The series is described as follows: competition binding.
Regarding MC5R (from UniProt P33032), the Ki is 46 nM. On to MC1R (from UniProt Q01726), for which the Ki is 0.24 nM.

Take MC4R (from UniProt P32245): the Ki was 254 nM.
